Results published in paper PMC8803948, “TdfH selectively binds metal-loaded tetrameric calprotectin for zinc import” (Communications Biology, 2022).

Target: the molecule itself
Test: cryo-EM structure; TdfH-CP complex formed on a StrepTactinXT column (CP preincubated with CaCl2 and ZnCl2), eluted with desthiobiotin, in PBS pH 7.4, 0.02% LMNG; Titan Krios 300 kV; 6.1 Å; CP seen as a dimer of S100A8-S100A9 heterodimers (heterotetramer)

B1: human calprotectin (CP), heterodimer of S100A8 and S100A9 (complex)
chain 1: MLTELEKALNSIIDVYHKYSLIKGNFHAVYRDDLKKLLETECPQYIRKKGADVWFKELDINTDGAVNFQEFLILVIKMGVAAHKKSHEESHKE
chain 2: KMSQLERNIETIINTFHQYSVKLGHPDTLNQGEFKELVRKDLQNFLKKENKNEKVIEHIMEDLDTNADKQLSFEEFIMLMARLTWASHEKMHEGDEGPGHHHKPGLGEGTP
notes: S100A8, human, subunit of calprotectin; S100A9, human, subunit of calprotectin; with calcium and zinc it stands as a heterotetramer (two heterodimers) in the cryo-EM complex; also called S100A8-S100A9 heterodimer; copies: 1 + 1
In the case of B1, the “stoichiometry N” value is reported as 2.
